Source: patent publication US20240100180A1

Target: CLDN18.2 on lipoparticles
Test: ELISA on CLDN18.2-lipoparticles

EC50: 0.0515 µg/mL
Substance: IMAB362 (antibody)
